Measurements from EP3912994A1.

Key:
[1] = target: fibronectin type III domains 1-5 of human tenascin-C (human) (UniProt P24821); test: ELISA, TN1-5 coated, biotinylated FN12-14 titrated 1 nM to 1 µM
[2] = target: Tenascin-C (TNC), recombinant full length; test: SPR (Biacore 2000), TNC immobilised on CM5 chip, 1:1 Langmuir model
[3] = target: Tenascin-C (TNC) expressed by the NT193M tumor cell (mouse) (UniProt Q80YX1); test: cell-based or functional assay
Tenascin-C (TNC) expressed by the NT193M tumor cell (mouse), sequence (Q80YX1 23-2110 limits assumed): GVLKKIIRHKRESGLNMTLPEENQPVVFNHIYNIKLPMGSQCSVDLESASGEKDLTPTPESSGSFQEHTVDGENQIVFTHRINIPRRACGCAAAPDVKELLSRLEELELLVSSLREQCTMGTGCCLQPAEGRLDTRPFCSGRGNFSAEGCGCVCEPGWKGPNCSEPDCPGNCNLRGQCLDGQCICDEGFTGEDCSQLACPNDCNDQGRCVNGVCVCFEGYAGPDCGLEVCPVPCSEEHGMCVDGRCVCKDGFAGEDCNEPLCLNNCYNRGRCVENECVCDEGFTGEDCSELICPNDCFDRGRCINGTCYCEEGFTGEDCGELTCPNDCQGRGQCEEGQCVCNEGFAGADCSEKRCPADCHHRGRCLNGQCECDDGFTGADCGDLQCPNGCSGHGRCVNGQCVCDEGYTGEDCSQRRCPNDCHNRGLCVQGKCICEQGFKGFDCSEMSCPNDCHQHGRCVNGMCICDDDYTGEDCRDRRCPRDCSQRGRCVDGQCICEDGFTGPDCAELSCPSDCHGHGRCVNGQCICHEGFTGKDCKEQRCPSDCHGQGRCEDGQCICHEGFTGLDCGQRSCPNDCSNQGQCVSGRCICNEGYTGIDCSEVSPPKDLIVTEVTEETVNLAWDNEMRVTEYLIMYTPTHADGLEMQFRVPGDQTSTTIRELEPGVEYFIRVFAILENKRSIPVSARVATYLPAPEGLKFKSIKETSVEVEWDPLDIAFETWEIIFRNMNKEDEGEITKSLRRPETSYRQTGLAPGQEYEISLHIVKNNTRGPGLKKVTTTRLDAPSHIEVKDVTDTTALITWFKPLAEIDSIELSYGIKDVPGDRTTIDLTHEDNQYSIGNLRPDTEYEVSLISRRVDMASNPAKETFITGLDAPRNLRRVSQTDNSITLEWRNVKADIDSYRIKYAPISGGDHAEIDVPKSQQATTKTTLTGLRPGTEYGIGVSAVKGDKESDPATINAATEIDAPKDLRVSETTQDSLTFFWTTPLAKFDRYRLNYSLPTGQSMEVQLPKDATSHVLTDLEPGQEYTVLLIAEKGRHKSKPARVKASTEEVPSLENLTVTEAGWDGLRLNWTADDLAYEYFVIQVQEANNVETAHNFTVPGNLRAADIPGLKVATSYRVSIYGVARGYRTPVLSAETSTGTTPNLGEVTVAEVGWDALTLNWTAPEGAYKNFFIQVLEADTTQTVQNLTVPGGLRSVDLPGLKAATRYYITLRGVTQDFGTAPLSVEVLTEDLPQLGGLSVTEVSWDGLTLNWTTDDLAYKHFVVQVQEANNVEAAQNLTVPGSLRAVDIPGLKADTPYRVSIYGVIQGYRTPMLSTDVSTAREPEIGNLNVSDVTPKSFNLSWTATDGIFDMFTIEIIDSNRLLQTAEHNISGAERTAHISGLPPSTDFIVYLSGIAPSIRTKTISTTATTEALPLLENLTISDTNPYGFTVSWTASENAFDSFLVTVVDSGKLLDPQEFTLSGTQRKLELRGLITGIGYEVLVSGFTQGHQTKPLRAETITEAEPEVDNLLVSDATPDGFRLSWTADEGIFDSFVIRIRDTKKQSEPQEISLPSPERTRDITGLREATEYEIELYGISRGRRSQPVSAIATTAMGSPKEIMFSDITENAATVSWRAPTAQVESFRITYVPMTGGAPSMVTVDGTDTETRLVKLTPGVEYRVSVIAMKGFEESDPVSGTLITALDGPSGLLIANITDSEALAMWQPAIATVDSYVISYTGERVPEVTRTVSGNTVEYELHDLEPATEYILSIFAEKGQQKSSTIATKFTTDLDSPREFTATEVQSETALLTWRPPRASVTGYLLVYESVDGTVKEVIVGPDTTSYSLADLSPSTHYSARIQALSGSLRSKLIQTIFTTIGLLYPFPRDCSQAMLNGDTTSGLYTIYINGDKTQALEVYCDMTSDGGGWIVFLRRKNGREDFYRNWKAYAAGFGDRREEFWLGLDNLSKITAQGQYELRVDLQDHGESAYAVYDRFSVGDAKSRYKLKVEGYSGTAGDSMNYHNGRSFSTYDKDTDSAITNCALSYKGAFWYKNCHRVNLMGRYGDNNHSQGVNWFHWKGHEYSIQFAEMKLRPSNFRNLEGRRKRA

fibronectin type III domains 1-5 of human tenascin-C (human), sequence (P24821 625-1075, form in doubt): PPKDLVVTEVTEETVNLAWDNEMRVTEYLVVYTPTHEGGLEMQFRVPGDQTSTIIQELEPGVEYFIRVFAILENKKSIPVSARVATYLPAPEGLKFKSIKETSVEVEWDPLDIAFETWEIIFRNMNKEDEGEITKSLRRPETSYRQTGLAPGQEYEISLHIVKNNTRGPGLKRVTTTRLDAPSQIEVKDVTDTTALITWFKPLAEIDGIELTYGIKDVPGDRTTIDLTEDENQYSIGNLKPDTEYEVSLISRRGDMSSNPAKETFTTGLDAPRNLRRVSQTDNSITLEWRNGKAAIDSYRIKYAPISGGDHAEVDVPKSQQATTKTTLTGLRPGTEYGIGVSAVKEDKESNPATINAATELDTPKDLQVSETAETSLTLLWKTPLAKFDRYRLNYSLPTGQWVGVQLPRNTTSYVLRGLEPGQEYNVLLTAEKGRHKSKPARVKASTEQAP

| Kd [1] | Kd [2] | Substance | TRAIL-induced killing of NT193M cells [3] |
| --- | --- | --- | --- |
| 52 nM |  | fibronectin type III domains 12-14 of human fibronectin (double Strep-tagged) (from UniProt P02751 1635-1908) |  |
|  | 58 nM | CCL21 (R&D Systems 457-6C) (from UniProt P84444 24-133) (ligand) |  |
|  | 2.8 nM | Mouse recombinant SU… (Enzo Lifesciences ALX-201-130-C020) (from UniProt P50592 99-291) (ligand) | 5% |
|  | 790 nM | CXCL12 (R&D Systems 460-SD-050) (from UniProt P40224 22-89) (ligand) |  |
